{"source": "paper PMC6368066", "about": "(Neuromuscular disorders : NMD, 2018)", "origin": "cited, not measured here", "key": {"Piezo 1": {"target": "Piezo 1 (UniProt E2JF22)", "sequence (E2JF22 whole entry)": "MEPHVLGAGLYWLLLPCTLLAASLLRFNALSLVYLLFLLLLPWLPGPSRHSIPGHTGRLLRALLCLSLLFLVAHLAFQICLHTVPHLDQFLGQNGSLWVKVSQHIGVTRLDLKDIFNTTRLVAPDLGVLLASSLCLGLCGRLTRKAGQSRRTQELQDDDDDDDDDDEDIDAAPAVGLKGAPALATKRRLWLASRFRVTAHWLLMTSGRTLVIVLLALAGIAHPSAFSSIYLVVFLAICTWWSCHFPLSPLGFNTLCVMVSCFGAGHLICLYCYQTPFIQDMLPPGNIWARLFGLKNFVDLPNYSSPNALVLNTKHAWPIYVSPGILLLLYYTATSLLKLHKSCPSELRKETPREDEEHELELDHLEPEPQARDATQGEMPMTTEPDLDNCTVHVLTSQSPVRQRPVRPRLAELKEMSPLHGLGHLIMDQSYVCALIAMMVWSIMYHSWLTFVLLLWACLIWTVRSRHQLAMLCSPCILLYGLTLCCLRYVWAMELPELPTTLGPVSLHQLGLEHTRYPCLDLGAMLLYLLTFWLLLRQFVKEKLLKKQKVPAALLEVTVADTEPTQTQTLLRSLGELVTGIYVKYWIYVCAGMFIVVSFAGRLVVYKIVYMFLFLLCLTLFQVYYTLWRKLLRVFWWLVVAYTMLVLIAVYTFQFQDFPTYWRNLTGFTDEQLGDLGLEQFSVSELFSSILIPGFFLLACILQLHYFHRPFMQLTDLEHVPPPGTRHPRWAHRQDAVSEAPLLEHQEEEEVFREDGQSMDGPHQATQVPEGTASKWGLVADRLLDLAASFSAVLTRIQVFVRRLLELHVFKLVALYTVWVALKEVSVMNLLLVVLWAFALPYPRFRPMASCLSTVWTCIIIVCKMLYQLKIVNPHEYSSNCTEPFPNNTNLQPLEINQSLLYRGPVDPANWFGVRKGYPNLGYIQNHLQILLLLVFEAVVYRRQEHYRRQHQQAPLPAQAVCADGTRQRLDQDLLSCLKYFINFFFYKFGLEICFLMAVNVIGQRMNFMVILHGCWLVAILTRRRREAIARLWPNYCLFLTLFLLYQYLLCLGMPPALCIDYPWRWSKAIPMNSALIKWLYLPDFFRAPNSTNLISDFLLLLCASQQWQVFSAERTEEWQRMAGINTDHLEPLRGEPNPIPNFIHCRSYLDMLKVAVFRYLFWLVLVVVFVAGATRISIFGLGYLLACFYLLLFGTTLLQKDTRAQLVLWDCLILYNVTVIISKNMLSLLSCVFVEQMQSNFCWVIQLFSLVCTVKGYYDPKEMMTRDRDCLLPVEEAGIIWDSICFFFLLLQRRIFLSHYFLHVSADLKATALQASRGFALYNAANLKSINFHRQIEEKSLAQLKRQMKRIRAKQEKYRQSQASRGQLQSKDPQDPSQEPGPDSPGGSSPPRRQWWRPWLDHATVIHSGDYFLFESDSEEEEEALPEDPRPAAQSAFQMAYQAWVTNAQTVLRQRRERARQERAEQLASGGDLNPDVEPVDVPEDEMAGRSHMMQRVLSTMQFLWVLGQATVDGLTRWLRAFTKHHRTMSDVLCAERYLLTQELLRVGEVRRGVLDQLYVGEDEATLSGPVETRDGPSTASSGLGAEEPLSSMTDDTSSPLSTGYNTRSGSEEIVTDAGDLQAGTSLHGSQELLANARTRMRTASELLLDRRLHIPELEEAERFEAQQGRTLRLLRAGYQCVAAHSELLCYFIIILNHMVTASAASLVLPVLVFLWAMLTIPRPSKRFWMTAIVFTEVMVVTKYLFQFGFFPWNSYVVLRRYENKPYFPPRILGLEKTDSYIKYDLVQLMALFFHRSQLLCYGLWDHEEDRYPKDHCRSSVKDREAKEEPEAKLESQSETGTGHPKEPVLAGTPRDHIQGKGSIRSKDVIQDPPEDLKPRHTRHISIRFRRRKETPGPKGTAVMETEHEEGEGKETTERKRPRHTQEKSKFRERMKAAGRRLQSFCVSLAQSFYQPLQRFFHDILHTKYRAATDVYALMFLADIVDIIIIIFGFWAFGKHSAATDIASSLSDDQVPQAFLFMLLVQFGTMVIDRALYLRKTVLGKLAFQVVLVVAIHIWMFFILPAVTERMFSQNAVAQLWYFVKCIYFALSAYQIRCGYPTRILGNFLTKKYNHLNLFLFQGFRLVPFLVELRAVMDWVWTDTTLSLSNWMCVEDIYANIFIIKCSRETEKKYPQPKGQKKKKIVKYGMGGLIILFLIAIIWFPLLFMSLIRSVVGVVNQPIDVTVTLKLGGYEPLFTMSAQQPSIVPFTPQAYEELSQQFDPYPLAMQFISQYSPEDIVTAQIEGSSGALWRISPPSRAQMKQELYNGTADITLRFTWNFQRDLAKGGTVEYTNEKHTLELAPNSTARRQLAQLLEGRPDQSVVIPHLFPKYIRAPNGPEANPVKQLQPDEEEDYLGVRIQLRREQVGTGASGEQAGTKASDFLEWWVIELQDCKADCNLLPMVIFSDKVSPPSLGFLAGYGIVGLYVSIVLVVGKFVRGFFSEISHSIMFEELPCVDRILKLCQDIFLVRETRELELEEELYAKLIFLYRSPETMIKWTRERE", "test": "outside-out patch clamp"}, "mdx muscles": {"tested_on": "mdx muscles", "details": "mdx muscles in vitro, 10 μM"}, "dystrophin": {"tested_on": "dystrophin", "details": "phase III trials, over 180 weeks"}}, "note": "Where no end group is shown, it is not given here."}
{"substance": "GsMTx4 (from UniProt Q7YT39)", "values": [{"measurement": "Kd", "setting": "Piezo 1", "value": 500, "unit": "nM"}]}
{"substance": "GsMTx4: 34 amino acid peptide that selectively inhibits nonselective cationic MSCs (GCLEFWWKCNPNDDKCCRPKLKCSKLFKLCNFSF; ends and bridges not checked; cysteine pairing not given here; UniProt Q7YT39 47-80, looked up)", "values": [{"measurement": "contraction-induced dye accumulation", "setting": "mdx muscles", "value": "reduced contraction-induced dye accumulation"}]}
{"substance": "eteplirsen", "values": [{"measurement": "dystrophin levels", "setting": "dystrophin", "value": "~ 1 % of normal dystrophin levels"}]}
{"substance": "glucagon", "values": [{"measurement": "serum half-life", "value": "1 to 2", "unit": "min"}]}
